B1: Vascular endothelial growth factor receptor 1 (Homo sapiens), P17948 (parent)
chain: MVSYWDTGVLLCALLSCLLLTGSSSGSKLKDPELSLKGTQHIMQAGQTLHLQCRGEAAHKWSLPEMVSKESERLSITKSACGRNGKQFCSTLTLNTAQANHTGFYSCKYLAVPTSKKKETESAIYIFISDTGRPFVEMYSEIPEIIHMTEGRELVIPCRVTSPNITVTLKKFPLDTLIPDGKRIIWDSRKGFIISNATYKEIGLLTCEATVNGHLYKTNYLTHRQTNTIIDVQISTPRPVKLLRGHTLVLNCTATTPLNTRVQMTWSYPDEKNKRASVRRRIDQSNSHANIFYSVLTIDKMQNKDKGLYTCRVRSGPSFKSVNTSVHIYDKAFITVKHRKQQVLETVAGKRSYRLSMKVKAFPSPEVVWLKDGLPATEKSARYLTRGYSLIIKDVTEEDAGNYTILLSIKQSNVFKNLTATLIVNVKPQIYEKAVSSFPDPALYPLGSRQILTCTAYGIPQPTIKWFWHPCNHNHSEARCDFCSNNEESFILDADSNMGNRIESITQRMAIIEGKNKMASTLVVADSRISGIYICIASNKVGTVGRNISFYITDVPNGFHVNLEKMPTEGEDLKLSCTVNKFLYRDVTWILLRTVNNRTMHYSISKQKMAITKEHSITLNLTIMNVSLQDSGTYACRARNVYTGEEILQKKEITIRDQEAPYLLRNLSDHTVAISSSTTLDCHANGVPEPQITWFKNNHKIQQEPGIILGPGSSTLFIERVTEEDEGVYHCKATNQKGSVESSAYLTVQGTSDKSNLELITLTCTCVAATLFWLLLTLFIRKMKRSSSEIKTDYLSIIMDPDEVPLDEQCERLPYDASKWEFARERLKLGKSLGRGAFGKVVQASAFGIKKSPTCRTVAVKMLKEGATASEYKALMTELKILTHIGHHLNVVNLLGACTKQGGPLMVIVEYCKYGNLSNYLKSKRDLFFLNKDAALHMEPKKEKMEPGLEQGKKPRLDSVTSSESFASSGFQEDKSLSDVEEEEDSDGFYKEPITMEDLISYSFQVARGMEFLSSRKCIHRDLAARNILLSENNVVKICDFGLARDIYKNPDYVRKGDTRLPLKWMAPESIFDKIYSTKSDVWSYGVLLWEIFSLGGSPYPGVQMDEDFCSRLREGMRMRAPEYSTPEIYQIMLDCWHRDPKERPRFAELVEKLGDLLQANVQQDGKDYIPINAILTGNSGFTYSTPAFSEDFFKESISAPKFNSGSSDDVRYVNAFKFMSLERIKTFEELLPNATSMFDDYQGDSSTLLASPMLKRFTWTDSKPKASLKIDLRVTSKSKESGLSDVSRPSFCHSSCGHVSEGKRRFTYDHAELERKIACCSPPPDYNSVVLYSTPPI

Variants of: B1
Conditions: with p85a_human PIK3R1, P27986
p85a_human PIK3R1, P27986, sequence (P27986 whole entry): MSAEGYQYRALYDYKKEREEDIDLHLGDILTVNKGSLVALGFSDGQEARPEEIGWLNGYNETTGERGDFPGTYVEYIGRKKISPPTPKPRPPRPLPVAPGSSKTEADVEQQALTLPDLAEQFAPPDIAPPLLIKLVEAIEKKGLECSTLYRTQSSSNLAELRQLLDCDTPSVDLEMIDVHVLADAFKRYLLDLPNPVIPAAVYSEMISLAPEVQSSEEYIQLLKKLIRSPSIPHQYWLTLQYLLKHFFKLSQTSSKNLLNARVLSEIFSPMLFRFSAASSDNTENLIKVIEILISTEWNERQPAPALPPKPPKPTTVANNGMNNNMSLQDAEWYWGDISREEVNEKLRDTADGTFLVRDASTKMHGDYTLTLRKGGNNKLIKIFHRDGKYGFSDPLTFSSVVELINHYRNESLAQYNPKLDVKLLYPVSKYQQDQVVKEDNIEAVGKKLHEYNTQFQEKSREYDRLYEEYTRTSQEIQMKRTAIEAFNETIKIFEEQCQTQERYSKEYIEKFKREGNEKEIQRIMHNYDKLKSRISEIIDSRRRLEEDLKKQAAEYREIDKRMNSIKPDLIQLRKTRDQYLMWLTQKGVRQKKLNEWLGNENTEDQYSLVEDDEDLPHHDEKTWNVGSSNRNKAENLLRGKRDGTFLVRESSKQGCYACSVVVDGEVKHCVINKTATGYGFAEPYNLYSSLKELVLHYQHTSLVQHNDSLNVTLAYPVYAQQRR

Variant	effect of a mutation on the interaction
K861A	disrupting interaction
Y1124F;Y1184F;Y1333F	with no effect
Y1130F	decreasing interaction
Y1309F	with no effect
Y1327F	with no effect

Variants of: B1
Conditions: with p85a_human PIK3R1, P27986
Remark: another data set of the same source

Variant	effect of a mutation on the interaction
Y1130F	with no effect
Y1213F	disrupting interaction

Source: IntAct's records for PubMed 7657594
